# Assay results published in the DeepSol protein solubility set.
# Assay: soluble on expression in E. coli; label from the status in PepcDB or PDB records
row,Sequence,soluble on expression in E. coli
1,MGSDKIHHHHHHMNFDFDLPAKALFRAMPICRENTRFNIDGVLIDPDPNGGAWLVATDGKGMLVQYDPDTKVPEKCVVKVSAAWLTETRFDYDMSLIGDLNDIHWCDTRLEFSKDTMTAMSSDFDIAHCLAEAGPDVFCQIRYNPISFPDWRKALDTSANTSELARPVERQTALDTGYLTDLIGWSRGFQVNPAPAGHARLISFVGEPNTFAVLMPMVADATDPLPPLLERAGRADLIQGPQRAAE,not soluble
2,MIFKSNFTTRAGLAALALSFAAAGAPSVASAQQAGGKPPQGWFKVCTKQEDNDVCIVQNLLTANNGQLVTAVGLITVSGKVNRKVMQVSVPSARMIPPGVQMQIDGGKGVKLDYAICMPDKCVAEAPLSDALIAQLKKGNEVVFTSVNFQRAPNPIKMSLEGFTGVFDGEPIEQSQLEERQRLLQEEMQKKAEDARKKLEEAQKAAKQQ,not soluble
3,MSEAAIAKKETLVQAAAEKFESAASVVIVDYRGLTVEEVTNLRKQLRDAGVEMKVIKNSILSRAAKKVGLDGLDEVFTGPTAVAFSNDDVVAPAKIIDEFAKDAKALEIKGGVIEGKVSSVEQITALAKLPNREGLLSMLLSVLQAPVRNVAYAVKAVAEKNEEVA,not soluble
4,MMIMERHYTLKEASKILGVSIKTLQRWDKAGKIKCIRTLGGKRRVPESEIKRILGIKDKEQRKIIGYARVSFNAQKDDLERQIQLIKSYAEENGWDIQILKDIGSGLNEKRKNYKKLLKMVMNRKVEKVIIAYPDRLTRFGFETLKEFFKSYGTEIVIINKKHKTPQEELVEDLITIVSHFAGKLYGMHSHKYKKLTKTVKEIVREEDAKEKE,not soluble
5,MLRCCSALMCPTAVPSRVSPVAAAAAADIAGSSESTVSLVADVDKKNSQYKQIFLERFRKKLQSDKTGMNNLESFVELPEGVAPSAASIGPIKRGSEPLPPWIKLKVPKGMTHRPRFNRIRRSMREKNLSTVCEEAKCPNIGECWGGSDEEGTATATIMVMGSHCTRGCRFCSVLTSRRPPPLDPEEPEKVAAAVHEMGVDYIVMTMVDRDDLPDGGASHVCCCIHTIKKKNPELMLEALVGDFHGDLKLVEQLAVTPLSVYAHNIECVERITPRVRDRRASYRQSLQTLEHVTKWTNGNMLTKSSIMLGLGEEEAEVRQTLRDLRTAGVSAVTLGQYLQPSHTRLKVSRYAHPKEFEMWEKEAMDMGFLYCASGPMVRSSYRAGEYYIKNILKQRQSAEGGKAAAAATAVNAGTAIA,not soluble
6,MGSDKIHHHHHHMELTESIRLLFPPEERAQLDISAIKGDASNRQYYRVTGQGSVSVVCADPAFRATAVENYPFLIVRDLFARHGIRVPELLGMVHEQGLLRLEDCGDLMLQDEVPLLDRNRLSARYRQVIDLLVRIQSIRPDKDALTTTLPFSLSFDHEKLMFEFDFFIEHALNGYFAGRLGKPAIARLREEFINICDLLVLPKHFVLNHRDFHSRNIMLFRAEPVVIDFQDARLGLPQYDAVSLLRDSYVRLDPGMVNELKRYHFNQLVQLGLTSMGEAEYLRLFDLMAFQRNVKAIGTFCYQTTVAGNRTFEPSIAATLSYLREYIEARPELAMAGRLLKPIIPEISR,not soluble
7,MMRWIRHMFAPSAHRSFPPRSMDSIAAAIAASEQLHTGQVMVAVEADLSAAALWRGHGARQRAEQAFAQLRTWDTEANNGVLIYLLLADHAIEVVADRGLRALVPDAAWAEVCRRMQQFLRDGQHEAAVLAGVEAVTELLCAHFPAAAQAQHEDELPNRPHILGLEHHHHHH,soluble
8,MGSDKIHHHHHHLSGQQDDVEDGMDQDTLTRIAEALERMAPVPQSTPDFSAASGFVWHVEPDRLEPVPEINRVELDLLVGIDRSRDTLLENTRRFAAGHAANNALLWGARGMGKSSLVKAIHGALVTDHPELKLVELQREDLPSVARLLNHLRGAPCRFILFCDDLSFSHDDQHYKSLKAVLDGGIEGRPENVVFYATSNRRHLMPRDMIENERSSAINPSEAVEEKVSLSDRFGLWLGFHPCNQDAYLAMIEGYCAAYGVTVDPERLRAEAIEWQATRGARSGRVAWQFFTDLAGREGVALR,not soluble
9,QLGMKGYADTIDRQRMQTQAQFVLEKMSREIRHAVPNSFHVPTGSTNCLEFMPIEYSGFYTLTNNNLEFLLGNDSTLNPIPADRWMVINPSRYEDLQSASPQSLAVGNLAKTGD,not soluble
10,FTSPAVKRLLGWKQGDEEEKWAEKAVDALVKKLKKKKGAMEELEKALSCPGQPSNCVTIPRSLDGRLQVSHRKGLPHVIYCRVWRWPDLQSHHELKPLECCEFPFGSKQKEVCINPYHYKRVES,soluble
11,MAVPESKEALIKAINSQFTLLMKKIDAVPAERAFSPEMAGHAQGTQMSPANLVAYLLGWGNVVLKWHEDEEQGKTIDFPEAGYKWNQLGLLAQKFYQDYAPITDWAELIALLAANKLALIALVERYTDEQLYGEGWYGKWTRGRMIQFNTAAPYKNAAGRLRTWEKNKLEHHHHHH,not soluble
12,NQIYLPMVDFRPFKVGKSLRELTQAPAGAPEDVYEYVFVYEKNGKRQEFDMDHLPDDSWTYVDRHEKLIKKGYTPPVTDFLLLRGGEDVTSEIVNKKGITLLLLSPDWENASDDKMDNISEMYDYAQEHAWDFYGVSASTSDDISTWRYNTGADYPMLFLDAVTVKTITRGNPSLVILRDGVIRGKVSDANFPGVGQAQAFFDRYIGNELYQPS,not soluble
13,MGHHHHHHSHMDVVKEIMAAIKQYETIIIHRHQRPDPDAIGSQVGLAELLRASFPEKNIYQVGGPVEGLEFLAEMDVITDDVYRGALVIVTDTANAPRISDARFSLGDQLIKIDHHPNDEPYGDLVWVNTNASSCSEIIVDFWQQHLAELTMTDNAARLLYAGIVGDTGRFLYPSTSAHTLAVAAQLRTFNFNAADLNRELDQMPLKVAKLAGYIYQNLEIDANGAARVVLPQSILNSYDIVDSETAAIVSMPGKIEDVLSWAIFVEQPEGYYRVRLRSKGPIINTIAKKHHGGGHPLASGANARDAAEIEVIYQEIQAACQEWAQK,soluble
14,GPGSMSALNDSRTTSGRPLPGGKPYALRPEGIPPSLCGDNVGASRGGDSIGDFKTAFEQPHSIDSEEEGDVEAASSPEQRLRRVQRDVYRHERQIASLFSEKHEHCEHLATVYKELEKVLRKIQLAPLEDLKGHAASPSASTFCAPSSDEDGYAASSTVSALASSLQQRFHQVLQQHQDRVYDVLVDYRQQINKSEYETGRRLCAIEEAIAQIQSDVRELQHTASIQVEELRHVQQDVRQRVEAVAVQQEAQRAALDATREARDTKAAKLLSKIQDDVAGLRADAKAARTQQIESAKDVEEQIRSLLSAQHRTEEALGAHSASIAQLQNQDSLEGAFHEVKDWLGDLEKRMVSRGELLQWTASLQSEIHQMRRVTGGVLSHTIEPTAPGQDA,soluble
15,MSYDYIVSQYLAYIKDITLEGCKAEEIFDYFKDKLNIVSKEGCDKPYIKVYKNNRLYFSYYGIPAINEFWPFLNALVRISNNVIQLDEKEKELAANIRGNIKLFVTPDCTKCPIAAELLYQLPILNSNISLEIIDVTTYDDLGKKHRVLNVPKIVLNEKTEIPGSFPPTIILKMLAKGSEQH,soluble
16,MSIYKIPLPLNILEAARERITWTLNTLPRVCVSFSGGKDSGLMLHLTAELARQMGKKICVLFIDWEAQFSCTINYVQSLRELYTDVIEEFYWVALPLTTQNSLSQYQPEWQCWEPDVEWVRQPPQDAITDPDFFCFYQPGMTFEQFVREFAEWFSQKRPAAMMIGIRADESYNRFVAIASLNKQRFADDKPWTTAAPGGHSWYIYPIYDWKVADIWTWYANHQSLCNPLYNLMYQAGVPLRHMRICEPFGPEQRQGLWLYHVIEPDRWAAMCARVSGVKSGGIYAGHDNHFYGHRKILKPEHLDWQEYALLLLNSMPEKTAEHYRNKIAIYLHWYQKKGIEVPQTQQGDIGAKDIPSWRRICKVLLNNDYWCRALSFSPTKSKNYQRYNERIKGKRQEWGILCNND,not soluble
17,MAKYQELVEQLKRQIKSGIWHPGDKLPSLRRQSEHSGLSLMTVLHAYQILESQGWVTSQPRSGYRVAPNIKSSNEPQAPAAVSWTEQVDINEFIFDVLQASKNPSMINFGFAYPDPSLYPRYHVNRAMSAAARNMPISTTFDNLPPGNEQLRTIIAKRYAAKGIEISPDEIVITAGALEALTLSLQACTRPGDWVVVESPAFYGALQSLERLGLKALSVRTDPVTGIDLDSLERALQTHDVKACWLMSNFQNPLGFTLSNEKKQKLIELTQRYNVPVIEDDVYSELHAENDSVYPLRMFDDTGNTMLCSSFSKSLIAGLRIGWVAAGKRALEVQKLQLMSTLATSAPVQMTLVHYLTSRNYESHLKQLRKKLFERKSKMTNLLNELLPEEVKVLSQSGGYFIWLELPKHIDALQIYREALKDNISIAPGKMFSLTEQYDHCIRLNASFELNDKYVHALNLLANIIRDHLAK,not soluble
18,MAQLYFYYSAMNAGKSTALLQSSYNYQERGMRTVVYTAEIDDRFGAGKVSSRIGLSSPAKLFNQNSSLFDEIRAEHEQQAIHCVLVDECQFLTRQQVYELSEVVDQLDIPVLCYGLRTDFRGELFIGSQYLLAWSDKLVELKTICFCGRKASMVLRLDQAGRPYNEGEQVVIGGNERYVSVCRKHYKEALQVGSLTAIQERHRHD,not soluble
19,MGHHHHHHSHDGSLVHISISPYPAILHEYVSSSKWEDAVRLCRFVKEQTMWACLAAMAVANRDMTTAEIAYAAIGEIDKVQYINSIKNLPSKESKMAHILLFSGNIQEAEIVLLQAGLVYQAIQININLYNWERALELAVKYKTHVDTVLAYRQKFLETFGKQETNKRYLHYAEGLQIDWEKIKAKIEMEITKEREQSSSSQSSKSIGLKP,not soluble
20,MGSDKIHHHHHHMSLEAPDLLRIRALPLFEAVNDGAFDRLMRGAFLQRFPRGSQLTTQGQPDNFLFVLLEGAIELEGSSSDRESTLALLWPSASLCLASIVLDGPSLMTARTTKGSLILMVPGDAFRQALEEDAGLGRAVAEELAGCFSGAVRSLKNNKLRTARERLVSYLLAQHQRQGGGAVVKLPCRKRVLASLLGMTPENLSRAFASLGPHGVEIDGSTVTLREPEGLAQLARPDPMIDNPIGESFSQAERERRRGGRTAIAAH,not soluble
21,HSSGLVPRGSHMSQERILDGEEDEINHKIFDLKRTLKDNLPLDRDFIDRLKRYFKDPSDQVLALRELLNEKDLTAEQVELLTKIINEIISGSEKSVNAGINSAIQAKLFGNKMKLEPQLLRACYRGFIMGNISTTDQYIEWLGNFGFNHRHTIVNFVEQSLIVDMDSEKPSCNAYEFGFVLSKLIAIKMIRTSDVIFMKKLESSSLLKDGSLSAEQLLLTLLYIFQYPSESEQILTSVIEVSRASHEDSVVYQTYLSSVNESPHDIFKSESEREIAINILRELVTSAYKKELSR,soluble
22,MAHHHHHHMELCLYNSKNGYLEALLRGFRSSFLTPEEYKKLTEVDTLEDLKSVLEDTDYGSFMMDEPSPIAVTTIAQKCKEKMAHEFNYIRAQAEEPLRTFLDYIAKEKMIDNVIILIHGTLNKKPAEELLSRVDPLGYFPQMKAITTMDVQNSHDDVLKVLLIETPIGTYFDKYISANASNEKNNVTTILNEMDIEILRNTLKKAWLEDFYDFIRELGGKTEEVMGHILKSVADFRVLSVTLNTINSSLSLELQKDRNDMFPCFGYLYPEGTDRIRKCWNNETVQAALENYPTYYNLYEECKQFYMKNENMQDSKIVDHKVKSLEDLLYVKLVKLCETAFDQHCHFGIFYAWVKLKEQEIRNIVWISDMILMNRKDCIDSIIPIFEPQI,not soluble
23,MSLTIYGVYRSRATRTLWLAAELGIEFKHVPVIQARRLADPLATDAPLNTLSPAFLAVNPMGTIPCIEDDGMVLYESMAINLYLARKYGGPLAPVDLKEDAAMLQWSFFAATEIETNSLKISSAIAEGLAESDAGKAVIDVAARLLKRPLRVLEQHLATHDYLVGDRFTVADLNVAEIVRYAQGHQPLFDAHPALKAWLARCQARTAFKSMWDSRTAEGHHHHHH,soluble
